Test results reported in patent publication US20250382344A1, “Soluble GLP1/GIP/NPY2 Receptor Triple Agonists” (Boehringer Ingelheim International GmH, priority 2024, published 2025).
Numbering of substitutions follows the chain as printed. *1 amine or outer side, *2 acyl side, *3 side chain or, on linkers, in order; H or OH if unused. Where no end group is shown, it is not given here. Side-chain parts run from the residue outwards. [ ]: non-standard residue; d: D form. The star is where a group is joined. C20 diacid = O=C(O)CCCCCCCCCCCCCCCCCCC(=O)*; C18 diacid = O=C(O)CCCCCCCCCCCCCCCCC(=O)*; γGlu = O=C(O)[C@H](CCC(=O)[*:2])N[*:1]; εLys = N[C@@H](CCCCN[*:1])C(=O)[*:2]; AEEA = NCCOCCOCC(=O)O; Aib = CC(C)(N)C(=O)O

T1: human neuropeptide Y2 receptor (human, UniProt P49146 1-381)
T1 sequence (looked up): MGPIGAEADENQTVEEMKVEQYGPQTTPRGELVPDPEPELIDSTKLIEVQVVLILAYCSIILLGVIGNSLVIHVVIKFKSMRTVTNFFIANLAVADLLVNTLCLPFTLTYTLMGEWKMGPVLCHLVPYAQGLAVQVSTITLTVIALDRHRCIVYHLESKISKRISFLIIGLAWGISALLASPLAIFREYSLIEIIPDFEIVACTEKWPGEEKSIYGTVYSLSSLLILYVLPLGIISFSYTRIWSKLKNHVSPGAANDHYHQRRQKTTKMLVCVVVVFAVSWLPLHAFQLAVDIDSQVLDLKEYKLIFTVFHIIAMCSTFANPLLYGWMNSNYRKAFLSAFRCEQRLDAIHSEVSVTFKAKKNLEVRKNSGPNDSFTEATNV

T2: human GIP receptor (human, UniProt P48546 22-466)
T2 sequence (looked up): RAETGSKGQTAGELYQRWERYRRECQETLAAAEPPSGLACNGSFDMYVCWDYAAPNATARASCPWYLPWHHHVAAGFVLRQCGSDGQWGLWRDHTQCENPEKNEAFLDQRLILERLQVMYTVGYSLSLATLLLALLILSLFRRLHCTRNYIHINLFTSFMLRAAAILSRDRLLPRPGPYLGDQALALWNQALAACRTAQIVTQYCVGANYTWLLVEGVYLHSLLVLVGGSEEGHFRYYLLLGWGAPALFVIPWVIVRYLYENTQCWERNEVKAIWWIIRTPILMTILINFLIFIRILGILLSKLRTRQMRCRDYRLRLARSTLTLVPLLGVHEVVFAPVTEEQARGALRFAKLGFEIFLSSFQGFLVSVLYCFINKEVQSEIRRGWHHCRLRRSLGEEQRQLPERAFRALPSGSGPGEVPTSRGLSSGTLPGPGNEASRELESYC

T3: human neuropeptide Y2 receptor (human, UniProt P49146 1-381)
T3 sequence (looked up): T1 sequence (looked up)

T4: human GIP receptor (human, UniProt P48546 22-466)
T4 sequence (looked up): T2 sequence (looked up)

B1: Compound 60 (peptide)
peptide: Y[Aib]EGTFTSDLSI[Aib]LEKQAQ[Aib]AFVRHLINK([γGlu-εLys-γGlu-γGlu-γGlu-γGlu-γGlu-C20 diacid])[Aib]TRQRY-NH2
B2: Compound 61 (peptide)
peptide: YXEGTFTSDYSIXLEKQAQAAFVRHLINKXTRQRY
modifications: Aib at 2, 13, 30; Lys29 epsilon-amino acylated with C18DA-gGlu-gGlu-gGlu-gGlu-gGlu-gGlu-eLys; C-terminal amide
B3: Compound 64 (peptide)
peptide: Y[Aib]EGTFTSDYSI[Aib]LEEEAQ[Aib]EFVRHLINK([γGlu-γGlu-γGlu-γGlu-C18 diacid])[Aib]TRQRY-NH2
B4: Compound 65 (peptide)
peptide: B2 peptide with K16L, A20X
modifications: Aib at 2, 13, 20, 30; Lys29 epsilon-amino acylated with C18DA-gGlu-gGlu-gGlu-gGlu-gGlu-gGlu-eLys; C-terminal amide
B5: Compound 66 (peptide)
peptide: B2 peptide with A20X, X30I
modifications: Aib at 2, 13, 20; Lys29 epsilon-amino acylated with C18DA-gGlu-gGlu-gGlu-gGlu-gGlu-gGlu-eLys; C-terminal amide
B6: Compound 69 (peptide)
peptide: B2 peptide with A20X, X30L
modifications: Aib at 2, 13, 20; Lys29 epsilon-amino acylated with C18DA-gGlu-gGlu-gGlu-gGlu-gGlu-AHX; C-terminal amide
B7: Compound 73 (peptide)
peptide: Y[Aib]EGTFTSDYSI[Aib]LEKQAQ[Aib]EFVRHLINK([AEEA-AEEA-γGlu-γGlu-γGlu-γGlu-C18 diacid])[Aib]TRQRY-NH2
B8: Compound 75 (peptide)
peptide: B2 peptide with K16E, A20X
modifications: Aib at 2, 13, 20, 30; Lys29 epsilon-amino acylated with C18DA-gGlu-gGlu-gGlu-gGlu-gGlu; C-terminal amide
B9: Compound 76 (peptide)
peptide: B2 peptide with A20X, V23I
modifications: Aib at 2, 20, 30; aMeL at 13; Lys29 epsilon-amino acylated with C18DA-gGlu-gGlu-gGlu-gGlu-gGlu-gGlu-eLys; C-terminal amide
B10: Compound 79 (peptide)
peptide: Y[Aib]EGTFTSDYSI[Aib]LEKQAQ[Aib]EFVRHLINK([γGlu-γGlu-γGlu-γGlu-C18 diacid])[Aib]TRQRY-NH2
B11: Compound 82 (peptide)
peptide: Y[Aib]EGTFTSDYSI[Aib]LEKQAE[Aib]AFVRHLINK([εLys-εLys-γGlu-γGlu-γGlu-γGlu-γGlu-γGlu-C20 diacid])[Aib]TRQRY-NH2
B12: Compound 83 (peptide)
peptide: B2 peptide with A20X, A21E, X30L
modifications: Aib at 2, 13, 20; Lys29 epsilon-amino acylated with C18DA-gGlu-gGlu-gGlu-gGlu-gGlu-gGlu-eLys; C-terminal amide
B13: Compound 84 (peptide)
peptide: B2 peptide with Q19Y, A20X
modifications: Aib at 2, 13, 20, 30; Lys29 epsilon-amino acylated with C18DA-gGlu-gGlu-gGlu-gGlu-gGlu-gGlu-eLys; C-terminal amide
B14: Compound 1 (peptide)
peptide: B2 peptide with Y10L, A20X
modifications: Aib at 2, 13, 20, 30; Lys29 epsilon-amino acylated with C20DA-gGlu-gGlu-gGlu-gGlu-gGlu-AHX-AHX; C-terminal amide
B15: Compound 170 (peptide)
peptide: B2 peptide with A20E
modifications: Aib at 2, 13, 30; Lys29 epsilon-amino: C18DA-gGlu-gGlu-gGlu-gGlu-gGlu-gGlu-eLys; C-terminal amide
B16: Compound 86 (peptide)
peptide: B2 peptide with A20X, Y35X
modifications: Aib at 2, 13, 20, 30; Phe4F at 35; Lys29 epsilon-amino: C18DA-gGlu-gGlu-gGlu-gGlu-gGlu-gGlu-eLys; C-terminal amide
B17: Compound 93 (peptide)
peptide: B2 peptide with G4A, A20X
modifications: Aib at 2, 13, 20, 30; Lys29 epsilon-amino: C18DA-gGlu-gGlu-gGlu-gGlu-gGlu-gGlu-eLys; C-terminal amide
B18: Compound 95 (peptide)
peptide: B2 peptide with K16G, A20X
modifications: Aib at 2, 13, 20, 30; Lys29 epsilon-amino: C18DA-gGlu-gGlu-gGlu-gGlu-gGlu-gGlu-eLys; C-terminal amide
B19: Compound 99 (peptide)
peptide: Y[Aib]EGTFTSDYSI[Aib]LEKQAQ[Aib]AFVRHLINK([AEEA-γGlu-γGlu-γGlu-γGlu-γGlu-γGlu-C20 diacid])[Aib]TRQRY-NH2
B20: Compound 169 (peptide)
peptide: B2 peptide with Y10L, A20X
modifications: Aib at 2, 13, 20, 30; Lys29 epsilon-amino: C18DA-gGlu-gGlu-gGlu-gGlu-gGlu-gGlu-eLys; C-terminal amide
B21: Compound 102 (peptide)
peptide: B2 peptide with E15D, A20X, V23I
modifications: Aib at 2, 13, 20, 30; Lys29 epsilon-amino: C18DA-gGlu-gGlu-gGlu-gGlu-gGlu-gGlu-eLys; C-terminal amide
B22: Compound 113 (peptide)
peptide: Y[Aib]EGTFTSDYSI[Aib]LDKQAQ[Aib]EFVRHLINK([εLys-γGlu-γGlu-γGlu-γGlu-γGlu-C18 diacid])[Aib]TRQRY-NH2
B23: Compound 126 (peptide)
peptide: B2 peptide with A20X, X30V
modifications: Aib at 2, 13, 20; Lys29 epsilon-amino: C18DA-gGlu-gGlu-gGlu-gGlu-gGlu-gGlu-eLys; C-terminal amide
B24: Compound 138 (peptide)
peptide: Y[Aib]EGTFTSDYSI[Aib]LDEQAQ[Aib]AFVRHLINK([εLys-γGlu-γGlu-γGlu-γGlu-γGlu-C20 diacid])[Aib]TRQRY-NH2
B25: Compound 143 (peptide)
peptide: B2 peptide with Q17A, A20X
modifications: Aib at 2, 13, 20, 30; Lys29 epsilon-amino: C18DA-gGlu-gGlu-gGlu-gGlu-gGlu-gGlu-eLys; C-terminal amide
B26: Compound 144 (peptide)
peptide: B2 peptide with A20X, A21S
modifications: Aib at 2, 13, 20, 30; Lys29 epsilon-amino: C18DA-gGlu-gGlu-gGlu-gGlu-gGlu-gGlu-eLys; C-terminal amide
B27: Compound 148 (peptide)
peptide: Y[Aib]EGTFTSDYSI[Aib]LEKQAE[Aib]AFVRHLINK([εLys-γGlu-AEEA-γGlu-γGlu-γGlu-γGlu-C20 diacid])[Aib]TRQRY-NH2

biological target: T1, human neuropeptide Y2 receptor; assay: cell-based or functional assay

In order of falling “EC50, CreLuc reporter, 100% hP” value:
1. B8  904 nM
2. B3  720 nM
3. B4  406 nM
4. B7  136 nM
5. B14  127 nM
6. B1  124 nM
7. B5  99.3 nM
8. B10  99.1 nM
9. B11  75.1 nM
10. B6  56 nM
11. B13  55 nM
12. B2  42.1 nM
13. B12  31.7 nM
14. B9  24.3 nM

In order of falling “EC50, CreLuc reporter, 0.5% hP” value:
1. B8  191 nM
2. B3  162 nM
3. B4  65.8 nM
4. B10  57.9 nM
5. B2  24.1 nM
6. B13  18.5 nM
7. B12  16.8 nM
8. B14  12.6 nM
9. B5  9.8 nM
10. B9  7.2 nM
11. B6  7 nM

biological target: T2, human GIP receptor; assay: cell-based or functional assay

In order of falling “EC50, CreLuc reporter, 0.5% hP” value:
1. B13  5 nM
2. B4  0.7 nM
3. B3  0.5 nM
4. B2  0.4 nM
5. B7  0.4 nM
6. B12  0.4 nM
7. B1  0.3 nM
8. B8  0.3 nM
9. B5  0.2 nM
10. B6  0.2 nM
11. B14  0.2 nM

In order of falling “EC50, CreLuc reporter, 100% hP” value:
1. B13  48.4 nM
2. B4  16.8 nM
3. B8  13.2 nM
4. B11  11.7 nM
5. B14  10.3 nM
6. B1  8 nM
7. B7  5.9 nM
8. B6  5.5 nM
9. B10  4.7 nM
10. B9  0.5 nM

biological target: T3, human neuropeptide Y2 receptor; assay: cell-based or functional assay

In order of falling “EC50, CreLuc reporter, 0.5% hP” value:
1. B18  58 nM
2. B15  43.8 nM
3. B16  33.2 nM
4. B19  16.7 nM

In order of falling “EC50, CreLuc reporter, 100% hP” value:
1. B15  244 nM
2. B16  162 nM
3. B19  125 nM
4. B18  96.3 nM
5. B17  24.8 nM

biological target: T4, human GIP receptor; assay: cell-based or functional assay

In order of falling “EC50, CreLuc reporter, 0.5% hP” value:
1. B27  0.8 nM
2. B19  0.5 nM
3. B24  0.5 nM
4. B20  0.4 nM
5. B15  0.4 nM
6. B23  0.4 nM
7. B26  0.4 nM
8. B16  0.3 nM
9. B25  0.3 nM
10. B22  0.2 nM
11. B21  0.1 nM

In order of falling “EC50, CreLuc reporter, 100% hP” value:
1. B17  17.6 nM
2. B24  11.5 nM
3. B18  9.3 nM
4. B19  9 nM
5. B16  5.9 nM
6. B22  5.5 nM
7. B26  4.8 nM
8. B21  2.8 nM
